Experiment [1] addresses T1, human PrRP receptor GPR10 (human, UniProt P49683 1-370).
T1 construct: whole, on cells; also called GPR10 human receptor transfected in CHO cells; human GPR10 receptor
T1 sequence (looked up): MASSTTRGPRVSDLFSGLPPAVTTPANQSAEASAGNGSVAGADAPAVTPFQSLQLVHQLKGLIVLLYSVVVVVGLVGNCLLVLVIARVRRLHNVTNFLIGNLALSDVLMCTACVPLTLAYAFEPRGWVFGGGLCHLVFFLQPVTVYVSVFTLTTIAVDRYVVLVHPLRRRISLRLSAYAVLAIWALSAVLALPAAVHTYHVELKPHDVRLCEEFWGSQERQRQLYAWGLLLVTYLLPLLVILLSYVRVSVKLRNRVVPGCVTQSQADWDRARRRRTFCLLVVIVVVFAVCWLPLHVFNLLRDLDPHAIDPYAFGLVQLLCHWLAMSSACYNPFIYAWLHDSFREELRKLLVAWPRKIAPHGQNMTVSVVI
Kind of experiment: competition with 125I-human PrRP31, CHO cells with human GPR10. On the procedure: CHO cells transfected with human PrRP receptor GPR10 (Perkin Elmer, USA) were grown on 24-well plates coated with polyethyleneimine. […] The following agents were used for the experiment: binding buffer (25 mmol.1⁻¹ Tris, pH 7.4; 118 mmol.1⁻¹ NaCl, 10 mmol.1⁻¹ MgCl₂, 1 mmol.1⁻¹ CaCl₂, 5.5 mmol.1⁻¹ glucose, 0.5 mg/ml BSA), unlabeled analogs of PrRP (i.e. the analog being tested) at a final concentration between 10⁻¹¹ to 10⁻⁴ mol.1⁻¹, and radiolabeled human ¹²⁵1-PrRP31 at a final concentration of 5×10⁻¹¹ mol.1⁻¹.
(§1) Plates were incubated for 60 minutes at room temperature. After incubation, the cells were solubilized in 0.1 mol/l solution of NaOH, and the radioactivity bound to the cells was counted using a γ-counter. The experiments were performed in duplicate, and repeated at least three times.

The target in experiment [2] is T2, rat PrRP receptor in RC-4B/C cells (rat, UniProt Q64121 1-370).
T2 construct: whole, on cells; endogenous receptor of RC-4B/C cells (ATCC); also called rat receptor; GPR10 receptor expressed in rat hypophyseal cells
T2 sequence (looked up): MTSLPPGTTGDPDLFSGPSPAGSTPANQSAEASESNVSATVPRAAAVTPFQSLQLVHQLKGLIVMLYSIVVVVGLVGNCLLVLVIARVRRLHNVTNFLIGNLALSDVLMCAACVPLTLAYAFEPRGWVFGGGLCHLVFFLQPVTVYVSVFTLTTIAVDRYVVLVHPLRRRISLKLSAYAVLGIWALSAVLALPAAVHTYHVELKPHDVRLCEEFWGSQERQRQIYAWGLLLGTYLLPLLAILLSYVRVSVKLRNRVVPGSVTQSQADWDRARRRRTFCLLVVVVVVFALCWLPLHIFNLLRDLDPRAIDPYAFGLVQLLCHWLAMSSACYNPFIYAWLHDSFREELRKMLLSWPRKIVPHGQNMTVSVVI
The experiment in a line: competition with 125I-rat PrRP31, RC-4B/C cells. On the procedure: The rat pituitary cell line RC-4B/C (ATCC, Manassas, USA) was grown on 24-well plates which had their bottom coated with polyethyleneimine. The cells were grown to the optimal density of 300-450 thousand cells per well.
as §1

Square brackets hold non-standard residues; d marks the D form. Ends that are not written are not given here. * marks the point of attachment. Phe(F5) = N[C@@H](Cc1c(F)c(F)c(F)c(F)c1F)C(=O)O; Palmitoyl = CCCCCCCCCCCCCCCC(=O)*; Myristoyl = CCCCCCCCCCCCCC(=O)*; Nle = CCCC[C@H](N)C(=O)O; Sar = CNCC(=O)O

This is an account of results in patent US20150196651A1 (published 2015).

What is called Ki is the dissociation constant of the complex between target and ligand, obtained from inhibition or displacement. Low readings indicate a stronger hold on the target, high ones a looser hold on the target.

B1: analog no. 51 (peptide)
peptide: SRTHRHSMEIRTPDINPK(Palmitoyl)WYASRGIRPVGRF-NH2
modifications: N-terminus assumed
SMILES: CCCCCCCCCCCCCCCC(=O)NCCCC[C@H](NC(=O)[C@@H]1CCCN1C(=O)[C@H](CC(N)=O)NC(=O)[C@@H](NC(=O)[C@H](CC(=O)O)NC(=O)[C@@H]1CCCN1C(=O)[C@@H](NC(=O)[C@H](CCCNC(=N)N)NC(=O)[C@@H](NC(=O)[C@H](CCC(=O)O)NC(=O)[C@H](CCSC)NC(=O)[C@H](CO)NC(=O)[C@H](Cc1c[nH]cn1)NC(=O)[C@H](CCCNC(=N)N)NC(=O)[C@H](Cc1c[nH]cn1)NC(=O)[C@@H](NC(=O)[C@H](CCCNC(=N)N)NC(=O)[C@@H](N)CO)[C@@H](C)O)[C@@H](C)CC)[C@@H](C)O)[C@@H](C)CC)C(=O)N[C@@H](Cc1c[nH]c2ccccc12)C(=O)N[C@@H](Cc1ccc(O)cc1)C(=O)N[C@@H](C)C(=O)N[C@@H](CO)C(=O)N[C@@H](CCCNC(=N)N)C(=O)NCC(=O)N[C@H](C(=O)N[C@@H](CCCNC(=N)N)C(=O)N1CCC[C@H]1C(=O)N[C@H](C(=O)NCC(=O)N[C@@H](CCCNC(=N)N)C(=O)N[C@@H](Cc1ccccc1)C(N)=O)C(C)C)[C@@H](C)CC
B1: in experiment [1], the “% of PrRP31” value is 54% and the Ki amounted to 7.24 nM.

In the case of SRAHQHS[Nle]ETRTPDINPAWYTGRGIRPVGR[Phe(F5)]-NH2 [analog no. 21], in experiment [2], the “% of PrRP31” value worked out at 51% and the Ki came to 9.69 nM. For the same molecule, in experiment [1], the “% of PrRP31” value was 45% and the affinity, expressed as Ki, was 8.59 nM.

Consider Palmitoyl-SRAHQHS[Nle]ETRTPDINPAWYTGRGIRPVGR[Phe(F5)]-NH2 [analog no. 22], for which the “% of PrRP31” value in experiment [2] was found to be 966%; in experiment [1], 203%. In addition, the Ki is 0.51 nM in experiment [2] and 1.92 nM in experiment [1].

For the molecule SRAHQHSMETRTPDINPAWYTGRGIRPVGRF-NH2 (synthetic peptide) [Rat PrRP31], the “% of PrRP31” value in experiment [2] and in experiment [1] was 100% throughout. Also, the values for the Ki in experiment [2] and in experiment [1] were 4.93 nM and 3.89 nM, respectively.

Turning to SRAHQHS[Nle]ETRTPDINPAWYTGRGIRPVGRF-NH2 [analog no. 3], the entries for the “% of PrRP31” value in experiment [2] and in experiment [1] were 385% and 203%, respectively. Further, the figures for the inhibitory constant (Ki) in experiment [2] and in experiment [1] were 1.28 nM and 1.92 nM, respectively.

B2: analog no. 24 (peptide)
peptide: Palmitoyl-SRAHQHS[Nle]ETRTPDINPAWYTGRGIRPVGRY-NH2
SMILES: CCCCCCCCCCCCCCCC(=O)N[C@@H](CO)C(=O)N[C@@H](CCCNC(=N)N)C(=O)N[C@@H](C)C(=O)N[C@@H](Cc1c[nH]cn1)C(=O)N[C@@H](CCC(N)=O)C(=O)N[C@@H](Cc1c[nH]cn1)C(=O)N[C@@H](CO)C(=O)N[C@@H](CCCC)C(=O)N[C@@H](CCC(=O)O)C(=O)N[C@H](C(=O)N[C@@H](CCCNC(=N)N)C(=O)N[C@H](C(=O)N1CCC[C@H]1C(=O)N[C@@H](CC(=O)O)C(=O)N[C@H](C(=O)N[C@@H](CC(N)=O)C(=O)N1CCC[C@H]1C(=O)N[C@@H](C)C(=O)N[C@@H](Cc1c[nH]c2ccccc12)C(=O)N[C@@H](Cc1ccc(O)cc1)C(=O)N[C@H](C(=O)NCC(=O)N[C@@H](CCCNC(=N)N)C(=O)NCC(=O)N[C@H](C(=O)N[C@@H](CCCNC(=N)N)C(=O)N1CCC[C@H]1C(=O)N[C@H](C(=O)NCC(=O)N[C@@H](CCCNC(=N)N)C(=O)N[C@@H](Cc1ccc(O)cc1)C(N)=O)C(C)C)[C@@H](C)CC)[C@@H](C)O)[C@@H](C)CC)[C@@H](C)O)[C@@H](C)O
For B2, in experiment [2], the “% of PrRP31” value was 1120% and the Ki was 0.44 nM. In experiment [1], the “% of PrRP31” value was determined as 248% and the Ki was 1.57 nM.

B3: analog no. 23 (peptide)
peptide: SRAHQHS[Nle]ETRTPDINPAWYTGRGIRPVGRY-NH2
modifications: N-terminus assumed
SMILES: CCCC[C@H](NC(=O)[C@H](CO)NC(=O)[C@H](Cc1c[nH]cn1)NC(=O)[C@H](CCC(N)=O)NC(=O)[C@H](Cc1c[nH]cn1)NC(=O)[C@H](C)NC(=O)[C@H](CCCNC(=N)N)NC(=O)[C@@H](N)CO)C(=O)N[C@@H](CCC(=O)O)C(=O)N[C@H](C(=O)N[C@@H](CCCNC(=N)N)C(=O)N[C@H](C(=O)N1CCC[C@H]1C(=O)N[C@@H](CC(=O)O)C(=O)N[C@H](C(=O)N[C@@H](CC(N)=O)C(=O)N1CCC[C@H]1C(=O)N[C@@H](C)C(=O)N[C@@H](Cc1c[nH]c2ccccc12)C(=O)N[C@@H](Cc1ccc(O)cc1)C(=O)N[C@H](C(=O)NCC(=O)N[C@@H](CCCNC(=N)N)C(=O)NCC(=O)N[C@H](C(=O)N[C@@H](CCCNC(=N)N)C(=O)N1CCC[C@H]1C(=O)N[C@H](C(=O)NCC(=O)N[C@@H](CCCNC(=N)N)C(=O)N[C@@H](Cc1ccc(O)cc1)C(N)=O)C(C)C)[C@@H](C)CC)[C@@H](C)O)[C@@H](C)CC)[C@@H](C)O)[C@@H](C)O
In the case of B3, the “% of PrRP31” value turned out to be 152% in experiment [2] and 193% in experiment [1]. Also, the Ki in experiment [2] came out at 3.25 nM; in experiment [1], 2.02 nM.

B4: analog no. 27 (peptide)
peptide: TPDINPAWYTGR[Sar]IRPVGRF-NH2
modifications: N-terminus assumed
SMILES: CC[C@H](C)[C@H](NC(=O)CN(C)C(=O)[C@H](CCCNC(=N)N)NC(=O)CNC(=O)[C@@H](NC(=O)[C@H](Cc1ccc(O)cc1)NC(=O)[C@H](Cc1c[nH]c2ccccc12)NC(=O)[C@H](C)NC(=O)[C@@H]1CCCN1C(=O)[C@H](CC(N)=O)NC(=O)[C@@H](NC(=O)[C@H](CC(=O)O)NC(=O)[C@@H]1CCCN1C(=O)[C@@H](N)[C@@H](C)O)[C@@H](C)CC)[C@@H](C)O)C(=O)N[C@@H](CCCNC(=N)N)C(=O)N1CCC[C@H]1C(=O)N[C@H](C(=O)NCC(=O)N[C@@H](CCCNC(=N)N)C(=O)N[C@@H](Cc1ccccc1)C(N)=O)C(C)C
As for B4, in experiment [2], the “% of PrRP31” value was determined as 62% and the Ki came out at 7.94 nM. In experiment [1], the “% of PrRP31” value was determined as 86% and the affinity, expressed as Ki, was 4.51 nM.

B5: analog no. 25 (peptide)
peptide: [dF][dR]GVPRIGRGTYWAPNIDPT-NH2
modifications: N-terminus assumed
SMILES: CC[C@H](C)[C@H](NC(=O)[C@H](CCCNC(=N)N)NC(=O)[C@@H]1CCCN1C(=O)[C@@H](NC(=O)CNC(=O)[C@@H](CCCNC(=N)N)NC(=O)[C@H](N)Cc1ccccc1)C(C)C)C(=O)NCC(=O)N[C@@H](CCCNC(=N)N)C(=O)NCC(=O)N[C@H](C(=O)N[C@@H](Cc1ccc(O)cc1)C(=O)N[C@@H](Cc1c[nH]c2ccccc12)C(=O)N[C@@H](C)C(=O)N1CCC[C@H]1C(=O)N[C@@H](CC(N)=O)C(=O)N[C@H](C(=O)N[C@@H](CC(=O)O)C(=O)N1CCC[C@H]1C(=O)N[C@H](C(N)=O)[C@@H](C)O)[C@@H](C)CC)[C@@H](C)O
notes: scrambled peptide; also called 25 scram
For the molecule B5, the “% of PrRP31” value in experiment [2] came to 0.09%; in experiment [1], 0.06%. Besides, the figures for the Ki in experiment [2] and in experiment [1] were 5200 nM and 6290 nM, respectively.

B6: analog no. 28 (peptide)
peptide: Myristoyl-TPDINPAWYTGR[Sar]IRPVGRF-NH2
SMILES: CCCCCCCCCCCCCC(=O)N[C@H](C(=O)N1CCC[C@H]1C(=O)N[C@@H](CC(=O)O)C(=O)N[C@H](C(=O)N[C@@H](CC(N)=O)C(=O)N1CCC[C@H]1C(=O)N[C@@H](C)C(=O)N[C@@H](Cc1c[nH]c2ccccc12)C(=O)N[C@@H](Cc1ccc(O)cc1)C(=O)N[C@H](C(=O)NCC(=O)N[C@@H](CCCNC(=N)N)C(=O)N(C)CC(=O)N[C@H](C(=O)N[C@@H](CCCNC(=N)N)C(=O)N1CCC[C@H]1C(=O)N[C@H](C(=O)NCC(=O)N[C@@H](CCCNC(=N)N)C(=O)N[C@@H](Cc1ccccc1)C(N)=O)C(C)C)[C@@H](C)CC)[C@@H](C)O)[C@@H](C)CC)[C@@H](C)O
Consider B6, for which, in experiment [2], the “% of PrRP31” value is 1540% and the Ki turned out to be 0.32 nM. In experiment [1], the “% of PrRP31” value came to 125% and the affinity, expressed as Ki, was 3.12 nM.
